{"source": "patent US7595168B2", "about": "“Method of screening for substances useful for transdifferentiation of microglia into neurons” (Eisai R&D Management Co., Ltd., priority 2006, dated 2009)", "molecules": {"B1": {"name": "noggin: a BMP inhibitor (N6784), Sigma (protein, UniProt Q13253 28-232, looked up)", "Noggin": "QHYLHIRPAPSDNLPLVDLIEHPDPIFDPKEKDLNETLLRSLLGGHYDPGFMATSPPEDRPGGGGGAAGGAEDLAELDQLLRQRPSGAMPSEIKGLEFSEGLAQGKKQRLSKKLRRKLQMWLWSQTFCPVLYAWNDLGSRFWPRYVKVGSCFSKRSCSVPEGMVCKPSKSVHLTVLRWRCQRRGGQRCGWIPIQYPIISECKCSC"}}, "test_system": "microglia", "assay": "Action of BMP on transdifferentiation of microglia into neurons; immunocytochemical marker quantification", "format": "cell-based, rat", "settings": "day 5 after enrichment; 100 ng/ml noggin in medium containing 70% FCS, 2 days", "procedure": "The cerebral cortex was isolated from newborn Wistar rats aged from 0 to 1 day (obtained from Shimizu Experimental Material Co. Ltd.) and cultured in an Eagle's minimum essential medium (EMEM) supplemented with 10% fetal calf serum (FCS) and […] insulin at 37° C. in an atmosphere of 5% CO2. After 14 to 16 days of incubation, microglia were isolated and prepared by the enriching procedure.\nThe cells were fixed with 4% paraformaldehyde and then reacted individually with an anti-CD11b antibody ([…], Chemicon International) or an anti-MAP2 antibody ([…], DakoCytomation) as a primary antibody and with Cy2-conjugated goat anti-mouse IgG (H+L) (Jackson ImmunoResearch) or Cy3-conjugated goat anti-rabbit IgG (H+L) (Jackson ImmunoResearch) as a secondary antibody. The CD11b is a marker for microglia and the MAP2 is a marker for neurons. […]\nAfter immunostaining the cells, images (200× magnification) of 8 fields per case were randomly obtained using a fluorescent microscope and MataMorph software (Molecular Devices). The numbers of cells expressing individual markers were counted and the average rates to the total number of cells were used as data. […]\nQuantification was carried out in the same manner as in Example 1."}
{"molecule": "B1", "values": [{"measurement": "effect on transdifferentiation of microglia into neurons by 70% serum", "value": "this transdifferentiation was suppressed"}]}
